Sequences and labels used below:
B1: CPEB3 Ribozyme (parent)
chain: GGGGGCCACAGCAGAAGCGUUCACGUCGCGGCCCCUGUCAGAUUCUGGUGAAUCUGCGAAUUCUGCUGU

This series covers variants of B1. As to the kind of experiment: self-cleavage, relative activity (ratio to wild type); higher = more cleavage; co-transcriptional.
For the variant GGGGGCCACAGCAGAAGCGUUCACGUCGCGGCCCGUGUCAGAUACUGGUGAAUCUGCGAAUUCUGCUGU, the self-cleavage amounted to 0.346. Under GGGGGCCACAGCAGAAGCGUUCACGUCGCGGCCCGUGUCAGAUCCUGGUGAAUCUGCGAAUUCUGCUGU stands 0.357; under GGGGGCCACAGCAGAAGCGUUCACGUCGCGGCCCUUGUCAGAUUCUGGUGAAUCUGCGAAUUAUGCUGU, 0.77. Regarding GGGGGCCACAGCAGAAGCGUUCACGUCGCGGCCCUUGUCAGAUUCUGGUGAAUCUGCGAAUUUUGCUGU, the self-cleavage was 0.954. As for GGGGGCCACAGCAGAAGCGUUCACGUCGCGGCCCUUGUCAGAUUCUGGUGAAUCUGCGAAUUGUGCUGU, the self-cleavage stood at 0.588. As to GGGGGCCACAGCAGAAGCGUUCACGUCGCGGCCCGUGACAGAUUCUGGUGAAUCUGCGAAUUCUGCUGU, the self-cleavage turned out to be 0.417.

Consider GGGGGCCACAGCAGAAGCGUUCACGUCGCGGCCCGUGGCAGAUUCUGGUGAAUCUGCGAAUUCUGCUGU, for which the self-cleavage came out at 0.178.

Take GGGGGCCACAGCAGAAGCGUUCACGUCGCGGCCCGUGUCAGAUUCUGGUGAAGCUGCGAAUUCUGCUGU: the self-cleavage was found to be 0.214. On to GGGGGCCACAGCAGAAGCGUUCACGUCGCGGCCCGUGUCAGAUUCUGGUGAACCUGCGAAUUCUGCUGU, for which the self-cleavage is 0.342. Under GGGGGCCACAGCAGAAGCGUUCACGUCGCGGCCCGUGUCAGAUUCUGGUUAAUCUGCGAAUUCUGCUGU stands 0.443; under GGGGGCCACAGCAGAAGCGUUCACGUCGCGGCCCGUGUCAGAUUCUGGUAAAUCUGCGAAUUCUGCUGU, 0.36; under GGGGGCCACAGCAGAAGCGUUCACGUCGCGGCCCUUGUCAGAUUCUGGUGUAUCUGCGAAUUCUGCUGU, 0.904.

With GGGGGCCACAGCAGAAGCGUUCACGUCGCGGCCCUUGUCAGAUUCUGGUGCAUCUGCGAAUUCUGCUGU, the self-cleavage was determined as 0.958. For the variant GGGGGCCACAGCAGAAGCGUUCACGUCGCGGCCCUUGUCAGAUUCUGGUGGAUCUGCGAAUUCUGCUGU, the self-cleavage was 0.904.

On to GGGGGCCACAGCAGAAGCGUUCACGUCGCGGCCCGUGUCAGAUUGUGGUGAAUCUGCGAAUUCUGCUGU, for which the self-cleavage is 0.452. Under GGGGGCCACAGCAGAAGCGUUCACGUCGCGGCCCGUGUCAGAUUAUGGUGAAUCUGCGAAUUCUGCUGU stands 0.475; under GGGGGCCACAGCAGAAGCGUUCACGUCGCGGCCCGUGUCAGAUUUUGGUGAAUCUGCGAAUUCUGCUGU, 0.483; under GGGGGCCACAGCAGAAGCGUUCACGUCGCGGCCCUUGUGAGAUUCUGGUGAAUCUGCGAAUUCUGCUGU, 0.878.

With GGGGGCCACAGCAGAAGCGUUCACGUCGCGGCCCUUGUAAGAUUCUGGUGAAUCUGCGAAUUCUGCUGU, the self-cleavage was found to be 0.782.

As to GGGGGCCACAGCAGAAGCGUUCACGUCGCGGCCCGUGUCAGAUUCUGGUGAAUCUGCGAAUUCUGAUGU, the self-cleavage was 0.308.

For the variant GGGGGCCACAGCAGAAGCGUUCACGUCGCGGCCCGUGUCAGAUUCUGGUGAAUCUGCGAAUUCUGUUGU, the self-cleavage was 0.474. Under GGGGGCCACAGCAGAAGCGUUCACGUCGCGGCCCGUGUCAGAUUCUGGUGAAUCUGCGAAAUCUGCUGU stands 0.33.

As to GGGGGCCACAGCAGAAGCGUUCACGUCGCGGCCCUUGUCAGAUUGUGGUGAAUCUGCGAAUUCUGCUGU, the self-cleavage was 0.956. Consider GGGGGCCACAGCAGAAGCGUUCACGUCGCGGCCCGUGUCAGAUUCUGGUGAAUCUGCGAAUUCUGCGGU, for which the self-cleavage was determined as 0.574.

For the variant GGGGGCCACAGCAGAAGCGUUCACGUCGCGGCCCGUGUCAGAUUCUGGUGAAUCUGCGAAUUCUGCAGU, the self-cleavage is 0.638. Under GGGGGCCACAGCAGAAGCGUUCACGUCGCGGCCCUUGUCAGAUUCUGGUGAAUCUGAGAAUUCUGCUGU stands 0.323; under GGGGGCCACAGCAGAAGCGUUCACGUCGCGGCCCGUGUAAGAUUCUGGUGAAUCUGCGAAUUCUGCUGU, 0.362; under GGGGGCCACAGCAGAAGCGUUCACGUCGCGGCCCGUGUCAGAUUCUGGUGAAUCUGCGUAUUCUGCUGU, 0.254.

With GGGGGCCACAGCAGAAGCGUUCACGUCGCGGCCCGUGUCAGAUUCUGGUGAAUCUGCGAAUUAUGCUGU, the self-cleavage stood at 0.341. For the variant GGGGGCCACAGCAGAAGCGUUCACGUCGCGGCCCGUGUCAUAUUCUGGUGAAUCUGCGAAUUCUGCUGU, the self-cleavage was 0.341. On to GGGGGCCACAGCAGAAGCGUUCACGUCGCGGCCCGUGUCAGAUUCUGGUGAAUGUGCGAAUUCUGCUGU, for which the self-cleavage is 0.348. In the case of GGGGGCCACAGCAGAAGCGUUCACGUCGCGGCCCGUGUCAGAUUCUGGUGAAUCUGCGAAUGCUGCUGU, the self-cleavage was 0.308. As to GGGGGCCACAGCAGAAGCGUUCACGUCGCGGCCCGUGUCAGAUUCUGGUGAAUCUGCGAAUACUGCUGU, the self-cleavage worked out at 0.313.

For GGGGGCCACAGCAGAAGCGUUCACGUCGCGGCCCGUGUCAGAUUCCGGUGAAUCUGCGAAUUCUGCUGU, the self-cleavage is 0.378. Take GGGGGCCACAGCAGAAGCGUUCACGUCGCGGCCCGUGUCAGAUUCUGAUGAAUCUGCGAAUUCUGCUGU: the self-cleavage was found to be 0.452. Turning to GGGGGCCACAGCAGAAGCGUUCACGUCGCGGCCCGUGUCAGAUUCUGUUGAAUCUGCGAAUUCUGCUGU, the self-cleavage is 0.491. For GGGGGCCACAGCAGAAGCGUUCACGUCGCGGCCCGUGUCAGAUUCUCGUGAAUCUGCGAAUUCUGCUGU, the self-cleavage turned out to be 0.634. With GGGGGCCACAGCAGAAGCGUUCACGUCGCGGCCCGUGUCAGAUUCUUGUGAAUCUGCGAAUUCUGCUGU, the self-cleavage came to 0.553.

GGGGGCCACAGCAGAAGCGUUCACGUCGCGGCCCUUGUCAGAUUCUGGUGAAUAUGCGAAUUCUGCUGU: the self-cleavage was determined as 0.744.

Values taken from the RNAGym collection of RNA variant scans (doi:10.7554/elife.80360).
